Laboratory results taken from US5770396.

Columns and labels:
[1] = target: rat FcεRI (αβγ2) (rat); assay: IgE rosetting assay, cotransfected COS 7 cells; 50 µg/ml rat IgE added 30 minutes before mouse anti-DNP IgE (competitor of mouse anti-DNP IgE)
[2] = target: rat FcεRI (αβγ2) (rat); assay: IgE rosetting assay on cotransfected COS 7 cells
[3] = target: rat FcεRI (αβγ2) (rat); assay: IgE rosetting assay, RBL cells (native rat receptor)
[4] = target: rat FcεRI (αβγ2) (rat); assay: IgE rosetting assay, COS 7 cells cotransfected with α, β and γ cDNAs (29 transfections)
[5] = target: COS 7 cells cotransfected with the rat α and β subunits (rat); assay: IgE rosetting assay, COS 7 cells transfected with α and β cDNAs (2 transfections); by the filing no IgE-binding sites reach the surface
[6] = target: rat FcεRI α subunit (rat); assay: IgE rosetting assay, COS 7 cells transfected with α cDNA alone (2 transfections); by the filing α does not reach the surface without β and γ

| IgE Binding (rosettes/cells counted) with inhibitor (rosettes per 7,542 cells counted) [1] | expression of IgE binding (% of cells) [2] [%] | IgE Binding (rosettes/cells counted) [3] [%] | IgE Binding (rosettes/cells counted) (rosettes per 41,238 cells counted) [4] | IgE Binding (rosettes/cells counted) (rosettes per 3,504 cells counted) [5] | IgE Binding (rosettes/cells counted) (rosettes per 4,050 cells counted) [6] | Substance |
| --- | --- | --- | --- | --- | --- | --- |
| 0 | – | – | – | – | – | non-specific rat IgE (antibody) |
| – | 5 | 100 | 920 | 0 | 0 | mouse IgE anti-DNP (antibody) |
